B1: H4H10432P2 (antibody, human IgG4, V domains shown)
VH: EVQLVESGGGLVQPGRSLTLSCAVSGFTFDDHAMHWVRQAPGKGLEWVSGISWNSVSIGYADSVKGRFTISRDNAKTSLYLQMNSLRVDDTALYYCVQDLNDILTGYPLFDFWGQGTLVTVSS
VL: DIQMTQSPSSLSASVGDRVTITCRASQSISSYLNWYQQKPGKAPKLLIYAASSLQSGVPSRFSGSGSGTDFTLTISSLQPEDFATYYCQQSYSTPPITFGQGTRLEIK
B2: H4H10468P2 (antibody, human IgG4, V domains shown)
VH: QVQLQESGPGLVKPSETLSLTCTVSGGSFSSHFWSWIRQPPGKGLEWIGYIYYSGGTHYNPSLESRVTISVDTSKNQFSLKLNSVTAADTAVYYCARARSGITFGGLIVPGSFDIWGQGTMVTVSS
VL: not shown
B3: H4H10445P2 (antibody, human IgG4, V domains shown)
VH: QVQLQESGPGLVKPSETLSLICSVSGGSFSSHFWSWIRQPPGKGLEWIGYVLYSGGTNYNPSLKSRVTISVDTSKNQFFLKLSSVTAADTADYYCARAISGITFGGIIVPGSFDIWGQGTMVTVSS
VL: not shown
B4: H4H10447P2 (antibody, human IgG4, V domains shown)
VH: QVQLQESGPGLVKPSETLSLTCSVSGGSFSSHFWSWIRQPPGKGLEWIGYIHYSGGTNYNPSLKSRVTISVDTSKNQFSLKLTSVTAADTADYYCARAISGITFGGMIVPGSFDVWGEGTMVTVSS
VL: not shown
B5: H4H10448P2 (antibody, human IgG4, V domains shown)
VH: QVQLQESGPGLVKPSETLSLTCTVSGGTFSSHFWSWIRQPPGKGLEWIGYIFYTGGTNHNPSLKSRVTISIDTSKNQFSLKLTSVTAADTAVYYCARARSGITFGGVIVPGSFDIWGQGTMVTVSS
VL: not shown
B6: H4H10452P2 (antibody, human IgG4, V domains shown)
VH: QVQLQESGPGLVKPSETLSLTCTVSGGSFSSHFWNWIRQSPGRGLEWIGYIYYSGGTNYNPSFKSRVTMSVDTSKNQFSLKLSSVTAADTAVFYCARARSGITFGGVLVPGSFDIWGQGTMVTVSS
VL: not shown

Experiments:
Activin A [1] = biological target: T1, Activin A (human, UniProt P08476 311-426); test: cell-based or functional assay
T1 sequence: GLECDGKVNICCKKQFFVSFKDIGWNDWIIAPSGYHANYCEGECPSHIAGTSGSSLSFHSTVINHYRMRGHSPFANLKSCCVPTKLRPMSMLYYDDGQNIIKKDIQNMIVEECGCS

Activin AB [2] = biological target: T2, Activin AB (human, UniProt P08476 311-426; P09529 293-407); test: cell-based or functional assay
T2 chain 1: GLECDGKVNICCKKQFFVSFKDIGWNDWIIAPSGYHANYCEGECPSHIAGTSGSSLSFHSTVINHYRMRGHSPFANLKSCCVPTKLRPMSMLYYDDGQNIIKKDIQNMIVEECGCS
T2 chain 2: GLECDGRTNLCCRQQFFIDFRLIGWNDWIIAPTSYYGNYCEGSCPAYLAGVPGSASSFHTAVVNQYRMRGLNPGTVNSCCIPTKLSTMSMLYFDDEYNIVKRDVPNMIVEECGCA

Activin AC [3] = biological target: T3, Activin AC (human, UniProt P55103 237-352); test: cell-based or functional assay
T3 sequence 1: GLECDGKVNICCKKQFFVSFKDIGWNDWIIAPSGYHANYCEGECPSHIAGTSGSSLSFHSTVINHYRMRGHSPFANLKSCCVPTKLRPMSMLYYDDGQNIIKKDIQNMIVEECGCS
T3 sequence 2: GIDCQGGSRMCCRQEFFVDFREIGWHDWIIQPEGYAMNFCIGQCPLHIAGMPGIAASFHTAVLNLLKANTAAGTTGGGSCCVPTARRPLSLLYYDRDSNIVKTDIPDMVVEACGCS

Activin AB [4] = biological target: T2, Activin AB; test: SPR (Biacore), mAb captured on anti-Fc, Activin AB injected, 25 C
Method: (§1) Antibody-antigen association was monitored for 240 seconds while dissociation in buffer was monitored for 600 seconds. Kinetic association and dissociation rate constants were determined by processing and fitting the data using Scrubber software version 2.0c. Binding equilibrium dissociation constants (KD) and dissociative half-lives (t_{1/2}) were then calculated from the kinetic rate constants as: KD (M)=kd/kₐ and t_{1/2} (min)=[ln 2/(60*kd)]. (NB=no binding observed under the conditions used; NT=not tested).

Activin AB [5] = biological target: T2, Activin AB; test: SPR (Biacore), mAb captured on anti-Fc, Activin AB injected, 37 C
Method: as §1

Activin AC [6] = biological target: T3, Activin AC; test: SPR (Biacore), mAb captured on anti-Fc, Activin AC injected, 25 C
Method: as §1

Activin AC [7] = biological target: T3, Activin AC; test: SPR (Biacore), mAb captured on anti-Fc, Activin AC injected, 37 C
Method: as §1

Activin A [8] = biological target: T4, Activin A (human, UniProt P08476 311-426); test: SPR, captured mAb, 25C
T4 construct: Homodimer of two βA subunits; bought from R&D Systems (#338-AC); also called inhibin-βA dimer; human Activin A
T4 sequence: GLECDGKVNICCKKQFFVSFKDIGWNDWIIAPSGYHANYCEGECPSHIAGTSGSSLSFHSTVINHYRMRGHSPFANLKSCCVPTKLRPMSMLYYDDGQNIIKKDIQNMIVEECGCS
Method: as §1

Activin A [9] = biological target: T4, Activin A; test: SPR, captured mAb, 37C
Method: as §1

Activin A [10] = biological target: T4, Activin A; test: SPR, captured mAb, 25C; no dissociation observed, kd fixed
Method: as §1

Activin A [11] = biological target: T4, Activin A; test: SPR, captured mAb, 37C; no dissociation observed, kd fixed
Method: as §1

Binder	IC50 [M], inhibition of 100 pM Activin A in A204/CAGAx12-Luc Smad2/3-luciferase bioassay (Activin A [1])	IC50 [M], inhibition of 30 pM Activin AB in A204/CAGAx12-Luc Smad2/3-luciferase bioassay (Activin AB [2])	IC50 [M], inhibition of 4 nM Activin AC in A204/CAGAx12-Luc Smad2/3-luciferase bioassay (Activin AC [3])	50 nM Ag Bound (RU) (Activin AB [4])	Kd (Activin AB [4])	koff (Activin AB [4])	kon (Activin AB [4])	t1/2 (Activin AB [4])	50 nM Ag Bound (RU) (Activin AB [5])	Kd (Activin AB [5])	Activin A-20 nM (RU) (Activin A [8])	Kd (Activin A [8])	kon (Activin A [8])	t1/2 (Activin A [8])	Activin A-20 nM (RU) (Activin A [9])	Kd (Activin A [9])	kon (Activin A [9])	t1/2 (Activin A [9])	koff (Activin A [10])	koff (Activin A [11])	also measured
B1	1.1e-10 M	8e-10 M	2.8e-09 M	38.3 RU	568 pM	0.00227 s⁻¹	4e+06 M⁻¹ s⁻¹	5.1 min	44.4 RU	1100 pM	–	–	–	–	–	–	–	–	–	–	koff (Activin AB [5]): 0.00592 s⁻¹; kon (Activin AB [5]): 5.4e+06 M⁻¹ s⁻¹; t1/2 (Activin AB [5]): 2 min; 50 nM Ag Bound (RU) (Activin AC [6]): 34.9 RU; Kd (Activin AC [6]): 2980 pM; koff (Activin AC [6]): 0.00187 s⁻¹; kon (Activin AC [6]): 629000 M⁻¹ s⁻¹; t1/2 (Activin AC [6]): 6.2 min; 50 nM Ag Bound (RU) (Activin AC [7]): 34.6 RU; Kd (Activin AC [7]): 12500 pM; koff (Activin AC [7]): 0.00902 s⁻¹; kon (Activin AC [7]): 722000 M⁻¹ s⁻¹; t1/2 (Activin AC [7]): 1.3 min
B2	3.9e-11 M	2.3e-09 M	3.4e-09 M	34.7 RU	556 pM	0.00209 s⁻¹	3.76e+06 M⁻¹ s⁻¹	5.5 min	34.5 RU	880 pM	–	–	–	–	–	–	–	–	–	–	koff (Activin AB [5]): 0.00443 s⁻¹; kon (Activin AB [5]): 5.03e+06 M⁻¹ s⁻¹; t1/2 (Activin AB [5]): 2.6 min; 50 nM Ag Bound (RU) (Activin AC [6]): 17.2 RU; Kd (Activin AC [6]): 7410 pM; koff (Activin AC [6]): 0.00592 s⁻¹; kon (Activin AC [6]): 798000 M⁻¹ s⁻¹; t1/2 (Activin AC [6]): 2 min; 50 nM Ag Bound (RU) (Activin AC [7]): 10.7 RU; Kd (Activin AC [7]): 17300 pM; koff (Activin AC [7]): 0.0124 s⁻¹; kon (Activin AC [7]): 719000 M⁻¹ s⁻¹; t1/2 (Activin AC [7]): 0.9 min
B3	–	–	–	–	–	–	–	–	–	–	43 RU	≤ 20.8 pM	2.4e+06 M⁻¹ s⁻¹	≥ 231 min	36 RU	≤ 11.5 pM	4.33e+06 M⁻¹ s⁻¹	≥ 231 min	≤ 5e-05 s⁻¹	≤ 5e-05 s⁻¹	–
B4	–	–	–	–	–	–	–	–	–	–	43 RU	≤ 21.2 pM	2.36e+06 M⁻¹ s⁻¹	≥ 231 min	36 RU	≤ 10.7 pM	4.69e+06 M⁻¹ s⁻¹	≥ 231 min	≤ 5e-05 s⁻¹	≤ 5e-05 s⁻¹	–
B5	–	–	–	–	–	–	–	–	–	–	64 RU	≤ 10.5 pM	4.76e+06 M⁻¹ s⁻¹	≥ 231 min	49 RU	≤ 6.36 pM	7.86e+06 M⁻¹ s⁻¹	≥ 231 min	≤ 5e-05 s⁻¹	≤ 5e-05 s⁻¹	–
B6	–	–	–	–	–	–	–	–	–	–	55 RU	≤ 10.7 pM	4.69e+06 M⁻¹ s⁻¹	≥ 231 min	43 RU	≤ 6.3 pM	7.94e+06 M⁻¹ s⁻¹	≥ 231 min	≤ 5e-05 s⁻¹	≤ 5e-05 s⁻¹	–

Reference: patent US20150037339A1 (Regeneron, published 2015)
